Publication PMC4895224

Target: 2-Cysteine peroxiredoxin (BxPrx) of Bursaphelenchus xylophilus (Bursaphelenchus xylophilus (endogenous in the nematode))
Assay: SDS-PAGE and immunoblot of the inter-molecular dimer; nematodes incubated in 0, 1 and 5 mM H2O2 for 5 min, harvested in 20% TCA, resuspended in SDS-PAGE loading buffer, 12% SDS-PAGE, Western blot with anti-BxPrx serum; 80 ug protein extract per lane

stoichiometry N: 2
Substance: 2-Cysteine peroxiredoxin (BxPrx) of Bursaphelenchus xylophilus (natural protein)
